Molecular target: NaV1.5 C-terminal domain (CTD), purified recombinant (UniProt Q14524 1773-1940)
Assay: ITC

Chain of NaV1.5 C-terminal domain (CTD), purified recombinant (Q14524 1773-1940): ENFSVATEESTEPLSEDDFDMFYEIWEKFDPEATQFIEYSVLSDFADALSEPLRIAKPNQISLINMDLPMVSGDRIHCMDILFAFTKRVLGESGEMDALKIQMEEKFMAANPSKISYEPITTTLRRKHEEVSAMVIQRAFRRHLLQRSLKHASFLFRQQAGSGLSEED

B1: Q7R-FGF12 (human FGF12-B with Q7R), purified recombinant (natural protein, UniProt P61328-2 1-181, looked up)
chain: MESKEPRLKGIVTRLFSQQGYFLQMHPDGTIDGTKDENSDYTLFNLIPVGLRVVAIQGVKASLYVAMNGEGYLYSSDVFTPECKFKESVFENYYVIYSSTLYRQQESGRAWFLGLNKEGQIMKGNRVKKTKPSSHFVPKPIEVCMYREPSLHEIGEKQGRSRKSSGTPTMNGGKVVNQDST
  fold reduction in binding affinity against WT-FGF12: 2 fold
